The source of these data is the Human Domainome abundance scans (Beltran et al. 2025).

The chains are these.
B1: Zinc finger homeobox protein 3, residues 2643 to 2698; numbered along this chain, Q15911 (parent)
chain: RLRTTITPEQLEILYQKYLLDSNPTRKMLDHIAHEVGLKKRVVQVWFQNTRARERK

± gives the uncertainty stated by the source.

In the data set the parent is B1. In words: abundance fitness (aPCA) (normalised: wild type 0, dead -1); higher = more abundant; growth selection in yeast, the domain comes from the species named. As to conditions: Homo sapiens.
Turning to RLHTTITPEQLEILYQKYLLDSNPTRKMLDHIAHEVGLKKRVVQVWFQNTRARERK [R3H], the abundance fitness turned out to be 0.199 ± 0.15.
In the case of RLDTTITPEQLEILYQKYLLDSNPTRKMLDHIAHEVGLKKRVVQVWFQNTRARERK [R3D], the abundance fitness is 0.543 ± 0.11.
For the variant RLETTITPEQLEILYQKYLLDSNPTRKMLDHIAHEVGLKKRVVQVWFQNTRARERK [R3E], the abundance fitness worked out at 0.366 ± 0.1.
With RLSTTITPEQLEILYQKYLLDSNPTRKMLDHIAHEVGLKKRVVQVWFQNTRARERK [R3S] the figure was 0.43 ± 0.094.
For RLTTTITPEQLEILYQKYLLDSNPTRKMLDHIAHEVGLKKRVVQVWFQNTRARERK [R3T], the abundance fitness worked out at 0.435 ± 0.12.
For RLKTTITPEQLEILYQKYLLDSNPTRKMLDHIAHEVGLKKRVVQVWFQNTRARERK [R3K], the abundance fitness was 0.209 ± 0.11.
With RLRHTITPEQLEILYQKYLLDSNPTRKMLDHIAHEVGLKKRVVQVWFQNTRARERK [T4H] the figure was -0.337 ± 0.17; with RLRPTITPEQLEILYQKYLLDSNPTRKMLDHIAHEVGLKKRVVQVWFQNTRARERK [T4P], 0.149 ± 0.13; with RLRKTITPEQLEILYQKYLLDSNPTRKMLDHIAHEVGLKKRVVQVWFQNTRARERK [T4K], -0.318 ± 0.16.
Turning to RLRVTITPEQLEILYQKYLLDSNPTRKMLDHIAHEVGLKKRVVQVWFQNTRARERK [T4V], the abundance fitness was -0.106 ± 0.092.
As for RLRDTITPEQLEILYQKYLLDSNPTRKMLDHIAHEVGLKKRVVQVWFQNTRARERK [T4D], the abundance fitness is 0.154 ± 0.19.
On to RLRFTITPEQLEILYQKYLLDSNPTRKMLDHIAHEVGLKKRVVQVWFQNTRARERK [T4F], for which the abundance fitness was -0.378 ± 0.24.
As to RLRETITPEQLEILYQKYLLDSNPTRKMLDHIAHEVGLKKRVVQVWFQNTRARERK [T4E], the abundance fitness was 0.439 ± 0.14.
Regarding RLRATITPEQLEILYQKYLLDSNPTRKMLDHIAHEVGLKKRVVQVWFQNTRARERK [T4A], the abundance fitness was -0.193 ± 0.1.
As for RLRLTITPEQLEILYQKYLLDSNPTRKMLDHIAHEVGLKKRVVQVWFQNTRARERK [T4L], the abundance fitness was -0.335 ± 0.11.
Turning to RLRCTITPEQLEILYQKYLLDSNPTRKMLDHIAHEVGLKKRVVQVWFQNTRARERK [T4C], the abundance fitness is -0.56 ± 0.19.
RLRYTITPEQLEILYQKYLLDSNPTRKMLDHIAHEVGLKKRVVQVWFQNTRARERK [T4Y]: the abundance fitness is -0.254 ± 0.18.
As for RLRRTITPEQLEILYQKYLLDSNPTRKMLDHIAHEVGLKKRVVQVWFQNTRARERK [T4R], the abundance fitness was -0.576 ± 0.095.
In the case of RLRNTITPEQLEILYQKYLLDSNPTRKMLDHIAHEVGLKKRVVQVWFQNTRARERK [T4N], the abundance fitness was -0.042 ± 0.2.
As for RLRWTITPEQLEILYQKYLLDSNPTRKMLDHIAHEVGLKKRVVQVWFQNTRARERK [T4W], the abundance fitness was -0.423 ± 0.11.
For RLRITITPEQLEILYQKYLLDSNPTRKMLDHIAHEVGLKKRVVQVWFQNTRARERK [T4I] the value was 0.048 ± 0.21.
As to RLRMTITPEQLEILYQKYLLDSNPTRKMLDHIAHEVGLKKRVVQVWFQNTRARERK [T4M], the abundance fitness worked out at 0.068 ± 0.14.
For the variant RLRGTITPEQLEILYQKYLLDSNPTRKMLDHIAHEVGLKKRVVQVWFQNTRARERK [T4G], the abundance fitness is -0.002 ± 0.08.
Turning to RLRSTITPEQLEILYQKYLLDSNPTRKMLDHIAHEVGLKKRVVQVWFQNTRARERK [T4S], the abundance fitness is -0.144 ± 0.13.
For RLRTTKTPEQLEILYQKYLLDSNPTRKMLDHIAHEVGLKKRVVQVWFQNTRARERK [I6K] the value was -0.392 ± 0.1.
Consider RLRTTRTPEQLEILYQKYLLDSNPTRKMLDHIAHEVGLKKRVVQVWFQNTRARERK [I6R], for which the abundance fitness was -0.868 ± 0.1.
As to RLRTTPTPEQLEILYQKYLLDSNPTRKMLDHIAHEVGLKKRVVQVWFQNTRARERK [I6P], the abundance fitness is -0.182 ± 0.083.
With RLRTTCTPEQLEILYQKYLLDSNPTRKMLDHIAHEVGLKKRVVQVWFQNTRARERK [I6C] the figure was -0.022 ± 0.1; with RLRTTNTPEQLEILYQKYLLDSNPTRKMLDHIAHEVGLKKRVVQVWFQNTRARERK [I6N], -0.702 ± 0.091.
Consider RLRTTMTPEQLEILYQKYLLDSNPTRKMLDHIAHEVGLKKRVVQVWFQNTRARERK [I6M], for which the abundance fitness was found to be 0.068 ± 0.094.
RLRTTLTPEQLEILYQKYLLDSNPTRKMLDHIAHEVGLKKRVVQVWFQNTRARERK [I6L]: the abundance fitness stood at 0.051 ± 0.072.
Turning to RLRTTATPEQLEILYQKYLLDSNPTRKMLDHIAHEVGLKKRVVQVWFQNTRARERK [I6A], the abundance fitness was -0.298 ± 0.087.
With RLRTTGTPEQLEILYQKYLLDSNPTRKMLDHIAHEVGLKKRVVQVWFQNTRARERK [I6G], the abundance fitness is -0.543 ± 0.11.
For RLRTTHTPEQLEILYQKYLLDSNPTRKMLDHIAHEVGLKKRVVQVWFQNTRARERK [I6H] the value was -0.332 ± 0.09; for RLRTTSTPEQLEILYQKYLLDSNPTRKMLDHIAHEVGLKKRVVQVWFQNTRARERK [I6S], -0.648 ± 0.081; for RLRTTQTPEQLEILYQKYLLDSNPTRKMLDHIAHEVGLKKRVVQVWFQNTRARERK [I6Q], -0.705 ± 0.12.
On to NLRTTITPEQLEILYQKYLLDSNPTRKMLDHIAHEVGLKKRVVQVWFQNTRARERK [R1N], for which the abundance fitness is 0.354 ± 0.26.
For YLRTTITPEQLEILYQKYLLDSNPTRKMLDHIAHEVGLKKRVVQVWFQNTRARERK [R1Y] the value was 0.054 ± 0.32; for MLRTTITPEQLEILYQKYLLDSNPTRKMLDHIAHEVGLKKRVVQVWFQNTRARERK [R1M], 0.23 ± 0.35.
Regarding KLRTTITPEQLEILYQKYLLDSNPTRKMLDHIAHEVGLKKRVVQVWFQNTRARERK [R1K], the abundance fitness worked out at 0.027 ± 0.2.
Consider CLRTTITPEQLEILYQKYLLDSNPTRKMLDHIAHEVGLKKRVVQVWFQNTRARERK [R1C], for which the abundance fitness was determined as 0.239 ± 0.16.
Take SLRTTITPEQLEILYQKYLLDSNPTRKMLDHIAHEVGLKKRVVQVWFQNTRARERK [R1S]: the abundance fitness is 0.131 ± 0.15.
In the case of TLRTTITPEQLEILYQKYLLDSNPTRKMLDHIAHEVGLKKRVVQVWFQNTRARERK [R1T], the abundance fitness is 0.504 ± 0.29.
With ALRTTITPEQLEILYQKYLLDSNPTRKMLDHIAHEVGLKKRVVQVWFQNTRARERK [R1A], the abundance fitness is 0.267 ± 0.21.
With ILRTTITPEQLEILYQKYLLDSNPTRKMLDHIAHEVGLKKRVVQVWFQNTRARERK [R1I] the figure was -0.063 ± 0.41; with LLRTTITPEQLEILYQKYLLDSNPTRKMLDHIAHEVGLKKRVVQVWFQNTRARERK [R1L], 0.561 ± 0.31.
Regarding VLRTTITPEQLEILYQKYLLDSNPTRKMLDHIAHEVGLKKRVVQVWFQNTRARERK [R1V], the abundance fitness turned out to be 0.297 ± 0.19.
With GLRTTITPEQLEILYQKYLLDSNPTRKMLDHIAHEVGLKKRVVQVWFQNTRARERK [R1G], the abundance fitness is 0.258 ± 0.11.
